# In paper PMC4245193:
# Test system: stable placental multi-protein complex SPC-1 (donor 1) (Homo sapiens (placenta, donor 1))
# Test: tryptophan fluorescence quenching titration (Scatchard)
# Conditions: 5' phosphate as printed (pT), 20 mM Tris-HCl pH 7.5, 150 mM NaCl, 0.3 mg/ml SPC, 25 C, excitation 283 nm, emission 338 nm
sequence,measurement,setting,value
TAGAAGATCAAA [12-mer ODN],Kd,high-affinity site (Kd1),0.036 µM
same,Kd,low-affinity site (Kd2),2.6 µM
